# Source: patent US20230136228A1 (LAMKAP BIO ALPHA, published 2023)
# Key:
# human CEACAM1 = molecular target: T1, human CEACAM1 (human, UniProt P13688 35-526); assay: flow cytometry, MFI on transfected PEAK cells divided by MFI on WT PEAK cells
# T1 construct: whole, on cells
# T1 sequence (looked up): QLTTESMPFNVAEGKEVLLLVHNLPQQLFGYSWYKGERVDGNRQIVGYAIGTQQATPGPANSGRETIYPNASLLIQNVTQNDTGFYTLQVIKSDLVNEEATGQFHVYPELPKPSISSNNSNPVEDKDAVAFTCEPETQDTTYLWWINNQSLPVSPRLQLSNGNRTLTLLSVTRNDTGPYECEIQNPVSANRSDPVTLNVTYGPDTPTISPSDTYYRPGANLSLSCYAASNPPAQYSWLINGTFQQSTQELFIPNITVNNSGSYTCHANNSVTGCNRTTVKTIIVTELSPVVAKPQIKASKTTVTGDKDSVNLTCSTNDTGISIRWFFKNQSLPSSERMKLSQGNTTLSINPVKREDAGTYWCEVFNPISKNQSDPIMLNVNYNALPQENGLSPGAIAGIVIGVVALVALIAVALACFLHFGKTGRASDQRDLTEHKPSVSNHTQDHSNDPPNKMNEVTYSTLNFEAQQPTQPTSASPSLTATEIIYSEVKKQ
# Experimental: (§1) Similarly, vectors encoding the full-length version of cyno CEACAM 5 and 6 are also used to express these proteins at the surface of PEAK and/or CHO cells. Non-transfected PEAK and/or CHO cells are used as negative control. Cells are harvested, counted, checked for viability and resuspended at 3×10⁶ cells/ml in FACS buffer (PBS 2% BSA, 0.1% NaN₃). 100 μl of the cell suspension are distributed in V-bottom 96-well plates (3×10⁵ cells/well). The supernatant is removed by centrifugation 3 minutes at 4° C., 1300 rpm and the cells incubated for 15 minutes at 4° C. with increasing concentrations of the antibody according to the invention. The antibodies carrying the anti-CEACAM5 arms to test are diluted in FACS buffer and the concentration range is 30 pM-500 nM. Cells are washed twice with cold FACS buffer and re-incubated for further 15 minutes at 4° C. with a compatible anti-human IgG secondary antibody. Cells are washed twice with cold FACS buffer and resuspended in 300 μl FACS buffer with 1:1500-diluted TOPRO-3 (Invitrogen). Fluorescence is measured using a FACSCalibur™ (BD Biosciences) or a Cytoflex Platform (Beckman Coulter). Dose-response binding curves are fitted using GraphPad Prism8 software. In the same manner, CEACAM1, CEACAM6 and other CEACAMs can be characterized.
# (§2) For the bispecific antibodies AB17L3-1/N, AB71L3-1/N, AB72L3-1/N, AB73L3-1/N the MFI measured for binding to CEACAM5 transfected cells was found between 29000 and 41000 (Table 2). In contrast MFI found by using PEAK cells transfected with CEACAM 1,3,4,6,8 were found below 1000 with the only exception of a strong signal for AB72L3-1/N on CEACAM8 transfected cells. When MFI values obtained on transfected cells expressing any given CEACAM are divided by the values obtained on WT PEAK cells, “factors to PEAK WT” can be calculated (Table 3). With the exception of AB72L3-1/N, the antibodies of the invention are all specific to CEACAM5, as the “factor to PEAK WT” values are all below 2.0.
# [1] = molecular target: T2, human CEACAM5 (carcinoembryonic antigen, CEA), cell surface (human, UniProt P06731 35-685); assay: as above
# T2 construct: whole, on cells; also called CD66e
# T2 sequence (looked up): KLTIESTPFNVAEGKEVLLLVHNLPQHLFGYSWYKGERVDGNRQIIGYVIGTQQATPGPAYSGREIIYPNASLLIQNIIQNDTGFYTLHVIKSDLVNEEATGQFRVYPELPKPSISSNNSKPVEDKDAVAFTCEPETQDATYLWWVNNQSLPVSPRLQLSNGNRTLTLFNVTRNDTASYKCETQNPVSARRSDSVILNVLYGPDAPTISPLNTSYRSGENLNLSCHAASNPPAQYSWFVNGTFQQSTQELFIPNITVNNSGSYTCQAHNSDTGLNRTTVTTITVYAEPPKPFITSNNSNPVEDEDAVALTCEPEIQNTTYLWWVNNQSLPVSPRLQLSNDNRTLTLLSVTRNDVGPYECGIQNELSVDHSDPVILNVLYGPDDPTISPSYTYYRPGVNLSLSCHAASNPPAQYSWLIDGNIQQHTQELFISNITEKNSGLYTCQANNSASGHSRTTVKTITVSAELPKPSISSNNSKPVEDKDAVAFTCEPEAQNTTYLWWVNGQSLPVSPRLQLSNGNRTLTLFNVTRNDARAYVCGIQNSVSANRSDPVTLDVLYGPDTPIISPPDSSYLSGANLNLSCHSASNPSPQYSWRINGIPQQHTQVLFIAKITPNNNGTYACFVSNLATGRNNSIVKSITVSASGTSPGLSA
# Experimental: as §1, §2
# human CEACAM8 = molecular target: T3, human CEACAM8 (human, UniProt P31997 35-320); assay: as above
# T3 construct: whole, on cells
# T3 sequence (looked up): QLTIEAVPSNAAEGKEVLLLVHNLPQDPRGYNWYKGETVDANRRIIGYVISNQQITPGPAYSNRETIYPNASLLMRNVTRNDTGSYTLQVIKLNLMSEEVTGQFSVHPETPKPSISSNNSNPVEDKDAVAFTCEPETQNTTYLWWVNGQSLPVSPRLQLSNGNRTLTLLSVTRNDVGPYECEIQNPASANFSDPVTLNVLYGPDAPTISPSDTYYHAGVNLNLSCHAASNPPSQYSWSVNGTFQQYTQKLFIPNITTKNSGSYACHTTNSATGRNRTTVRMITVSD
# Experimental: as §1, §2
# [2] = molecular target: T2, human CEACAM5 (carcinoembryonic …); assay: flow cytometry, MKN-45 cells
# Text: Examples of cells that can be used include CEACAM5-positive cell lines such as the gastric adenocarcinoma cell line MKN45 (expressing 155′000 CEACAM5 molecules per cell), or the pancreatic adenocarcinoma cell line HPAF-II (expressing 108′000 CEACAM5 molecules per cell) or the colorectal adenocarcinoma cell line LS174T (expressing 26′000 CEACAM5 molecules per cell) and CEACAM5-negative cell lines, such as the lung carcinoma cell line A549 and the MKN45 CEACAM5-knock out cell line generated by CRISPR-CAS9 methodology. Cell staining and binding assessment can be performed as described above. Binding of the bsAb of the invention at 200 nM, 1000 nM and 5000 nM is 40% and higher compared to binding of TCB2014 (see Table 4 and also FIGS. 11 and 14).
Binder,Factor to PEAK WT (human CEACAM1) [fold],Factor to PEAK WT [1] [fold],Factor to PEAK WT (human CEACAM8) [fold],EC50 [2] [µM],Top MFI value [2] [MFI],"binding higher than TCB2014 (at 200 nM, 1000 nM and 5000 nM) [2] [%]"
"AB17L3-1/N (bispecific antibody, human IgG1, kappa, lambda, L234A L235A, Kappa-lambda body, lead optimization wave 1) heavy: EVQLVESGGGLVQPGGSLKLSCAASGFTFNTYAMNWVRQAPGKGLEWVGRIRSKYNNYATYYADSVKDRFTISRDDSKNTAYLQMNSLKTEDTAVYYCVRHGNFGNSYVSWFAYWGQGTLVTVSSASTKGPSVFPLAPSSKSTSGGTAALGCLVKDYFPEPVTVSWNSGALTSGVHTFPAVLQSSGLYSLSSVVTVPSSSLGTQTYICNVNHKPSNTKVDKRVEPKSCDKTHTCPPCPAPEAAGGPSVFLFPPKPKDTLMISRTPEVTCVVVDVSHEDPEVKFNWYVDGVEVHNAKTKPREEQYNSTYRVVSVLTVLHQDWLNGKEYKCKVSNKALAAPIEKTISKAKGQPREPQVYTLPPSREEMTKNQVSLTCLVKGFYPSDIAVEWESNGQPENNYKTTPPVLDSDGSFFLYSKLTVDKSRWQQGNVFSCSVMHEALHNHYTQKSLSLSPG light 1: EIVLTQSPATLSLSPGERATLSCRASQSVNSNLNWYQQKPGQAPRLLIYHGSNRATGIPARFSGSGSGTDFTLTISSLEPEDFAVYYCQQFDYFKEHNTFGQGTKVEIKRTVAAPSVFIFPPSDEQLKSGTASVVCLLNNFYPREAKVQWKVDNALQSGNSQESVTEQDSKDSTYSLSSTLTLSKADYEKHKVYACEVTHQGLSSPVTKSFNRGEC light 2: QTVVTQEPSLTVSPGGTVTLTCRSSTGAVTTSNYANWFQQKPGQAPRGLIGGTNKRAPGTPARFSGSLLGGKAALTLSGAQPEDEAEYYCALWYKQRWVFGGGTKLTVLGQPKAAPSVTLFPPSSEELQANKATLVCLISDFYPGAVTVAWKADSSPVKAGVETTTPSKQSNNKYAASSYLSLTPEQWKSHRSYSCQVTHEGSTVEKTVAPTECS",1.2,55.1,0.8,0.0592,862000,≥ 40
"AB1L3-1/N (bispecific antibody, human IgG1, kappa, lambda, L234A L235A, Kappa-lambda body: common heavy chain (hIgG1 L234A+L235A+P329A), kappa CEA light chain AB1, lambda CD3 light chain L3-1 (1A4); also called parental KL bispecific antibody) heavy: EVQLVESGGGLVQPGGSLKLSCAASGFTFNTYAMNWVRQAPGKGLEWVGRIRSKYNNYATYYADSVKDRFTISRDDSKNTAYLQMNSLKTEDTAVYYCVRHGNFGNSYVSWFAYWGQGTLVTVSSASTKGPSVFPLAPSSKSTSGGTAALGCLVKDYFPEPVTVSWNSGALTSGVHTFPAVLQSSGLYSLSSVVTVPSSSLGTQTYICNVNHKPSNTKVDKRVEPKSCDKTHTCPPCPAPEAAGGPSVFLFPPKPKDTLMISRTPEVTCVVVDVSHEDPEVKFNWYVDGVEVHNAKTKPREEQYNSTYRVVSVLTVLHQDWLNGKEYKCKVSNKALAAPIEKTISKAKGQPREPQVYTLPPSREEMTKNQVSLTCLVKGFYPSDIAVEWESNGQPENNYKTTPPVLDSDGSFFLYSKLTVDKSRWQQGNVFSCSVMHEALHNHYTQKSLSLSPG light 1: EIVLTQSPATLSLSPGERATLSCRASQSVNSNLNWYQQKPGQAPRLLIYHGSNRATGIPARFSGSGSGTDFTLTISSLEPEDFAVYYCQQFDLRHEHNTFGQGTKVEIKRTVAAPSVFIFPPSDEQLKSGTASVVCLLNNFYPREAKVQWKVDNALQSGNSQESVTEQDSKDSTYSLSSTLTLSKADYEKHKVYACEVTHQGLSSPVTKSFNRGEC light 2: QTVVTQEPSLTVSPGGTVTLTCRSSTGAVTTSNYANWFQQKPGQAPRGLIGGTNKRAPGTPARFSGSLLGGKAALTLSGAQPEDEAEYYCALWYKQRWVFGGGTKLTVLGQPKAAPSVTLFPPSSEELQANKATLVCLISDFYPGAVTVAWKADSSPVKAGVETTTPSKQSNNKYAASSYLSLTPEQWKSHRSYSCQVTHEGSTVEKTVAPTECS",1,16.8,0.7,–,–,–
"AB71L3-1/N (bispecific antibody, human IgG1, kappa, lambda, L234A L235A, Kappa-lambda body, lead optimization wave 2) heavy: EVQLVESGGGLVQPGGSLKLSCAASGFTFNTYAMNWVRQAPGKGLEWVGRIRSKYNNYATYYADSVKDRFTISRDDSKNTAYLQMNSLKTEDTAVYYCVRHGNFGNSYVSWFAYWGQGTLVTVSSASTKGPSVFPLAPSSKSTSGGTAALGCLVKDYFPEPVTVSWNSGALTSGVHTFPAVLQSSGLYSLSSVVTVPSSSLGTQTYICNVNHKPSNTKVDKRVEPKSCDKTHTCPPCPAPEAAGGPSVFLFPPKPKDTLMISRTPEVTCVVVDVSHEDPEVKFNWYVDGVEVHNAKTKPREEQYNSTYRVVSVLTVLHQDWLNGKEYKCKVSNKALAAPIEKTISKAKGQPREPQVYTLPPSREEMTKNQVSLTCLVKGFYPSDIAVEWESNGQPENNYKTTPPVLDSDGSFFLYSKLTVDKSRWQQGNVFSCSVMHEALHNHYTQKSLSLSPG light 1: EIVLTQSPATLSLSPGERATLSCRASQSVNSNLNWYQQKPGQAPRLLIYHSSNRPHGIPARFSGSGSGTDFTLTISSLEPEDFAVYYCQQFDYFKEHNTFGQGTKVEIKRTVAAPSVFIFPPSDEQLKSGTASVVCLLNNFYPREAKVQWKVDNALQSGNSQESVTEQDSKDSTYSLSSTLTLSKADYEKHKVYACEVTHQGLSSPVTKSFNRGEC light 2: QTVVTQEPSLTVSPGGTVTLTCRSSTGAVTTSNYANWFQQKPGQAPRGLIGGTNKRAPGTPARFSGSLLGGKAALTLSGAQPEDEAEYYCALWYKQRWVFGGGTKLTVLGQPKAAPSVTLFPPSSEELQANKATLVCLISDFYPGAVTVAWKADSSPVKAGVETTTPSKQSNNKYAASSYLSLTPEQWKSHRSYSCQVTHEGSTVEKTVAPTECS",1,79.7,0.9,0.0341,833000,≥ 40
